Experimental data as given in the supplement of paper PMC10065799, “High-throughput profiling of sequence recognition by tyrosine kinases and SH2 domains using bacterial peptide display” (eLife, 2023).

Experiments:
EPHB2 = EPHB2 (UniProt P29323); assay: phosphorylation enrichment, bacterial display (enrichment ratio); higher = better substrate or ligand; peptides without Tyr show the background
AncSZ = assay: as above
Fer (mouse) = assay: as above
Hck = Hck (UniProt P08631); assay: as above
Fes = Fes (UniProt P07332); assay: as above
Sequence of Fes (P07332 whole entry, looked up): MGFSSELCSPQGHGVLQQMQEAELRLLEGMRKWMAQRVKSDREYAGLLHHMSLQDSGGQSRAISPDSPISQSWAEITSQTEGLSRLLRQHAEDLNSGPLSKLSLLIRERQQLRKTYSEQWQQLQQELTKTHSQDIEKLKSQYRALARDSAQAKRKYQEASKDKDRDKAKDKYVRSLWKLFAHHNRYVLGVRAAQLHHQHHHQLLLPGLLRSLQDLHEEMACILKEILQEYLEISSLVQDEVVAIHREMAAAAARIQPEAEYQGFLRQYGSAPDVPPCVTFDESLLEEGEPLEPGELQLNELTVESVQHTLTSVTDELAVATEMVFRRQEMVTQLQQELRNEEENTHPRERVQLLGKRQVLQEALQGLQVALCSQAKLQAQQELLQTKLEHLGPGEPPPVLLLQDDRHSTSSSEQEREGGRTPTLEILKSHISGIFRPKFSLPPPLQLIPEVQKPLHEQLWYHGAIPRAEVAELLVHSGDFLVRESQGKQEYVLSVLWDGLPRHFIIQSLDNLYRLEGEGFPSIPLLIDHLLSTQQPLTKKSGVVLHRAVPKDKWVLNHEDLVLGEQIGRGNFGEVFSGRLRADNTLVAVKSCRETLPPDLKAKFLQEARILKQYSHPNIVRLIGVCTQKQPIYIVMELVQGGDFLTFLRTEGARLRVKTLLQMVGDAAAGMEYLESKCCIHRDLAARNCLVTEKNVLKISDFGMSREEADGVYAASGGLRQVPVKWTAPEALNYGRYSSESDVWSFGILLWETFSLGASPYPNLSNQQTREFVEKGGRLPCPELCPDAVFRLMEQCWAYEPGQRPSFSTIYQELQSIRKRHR

c-Src = assay: as above
EPHB1 = EPHB1 (UniProt P54762); assay: as above
c-Abl (mouse) = assay: as above
Fyn = Fyn (UniProt P06241); assay: as above
Sequence of Fyn (P06241 whole entry, looked up): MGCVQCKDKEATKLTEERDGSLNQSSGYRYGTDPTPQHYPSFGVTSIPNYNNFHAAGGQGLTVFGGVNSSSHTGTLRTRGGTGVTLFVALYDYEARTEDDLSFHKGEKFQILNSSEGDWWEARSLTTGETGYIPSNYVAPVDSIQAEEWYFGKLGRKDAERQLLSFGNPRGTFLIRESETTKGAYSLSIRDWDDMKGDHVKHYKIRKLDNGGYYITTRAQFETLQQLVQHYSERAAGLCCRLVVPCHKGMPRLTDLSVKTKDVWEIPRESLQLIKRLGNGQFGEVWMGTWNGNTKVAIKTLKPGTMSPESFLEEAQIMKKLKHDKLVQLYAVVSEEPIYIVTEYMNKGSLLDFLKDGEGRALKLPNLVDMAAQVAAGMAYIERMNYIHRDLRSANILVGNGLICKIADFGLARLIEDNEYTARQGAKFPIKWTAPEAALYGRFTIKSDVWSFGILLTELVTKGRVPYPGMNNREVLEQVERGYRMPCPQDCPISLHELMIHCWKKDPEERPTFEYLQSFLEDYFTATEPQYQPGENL

MERTK = MERTK (UniProt Q12866); assay: as above
FGFR3 = FGFR3 (UniProt P22607); assay: as above
Sequence of FGFR3 (P22607 whole entry, looked up): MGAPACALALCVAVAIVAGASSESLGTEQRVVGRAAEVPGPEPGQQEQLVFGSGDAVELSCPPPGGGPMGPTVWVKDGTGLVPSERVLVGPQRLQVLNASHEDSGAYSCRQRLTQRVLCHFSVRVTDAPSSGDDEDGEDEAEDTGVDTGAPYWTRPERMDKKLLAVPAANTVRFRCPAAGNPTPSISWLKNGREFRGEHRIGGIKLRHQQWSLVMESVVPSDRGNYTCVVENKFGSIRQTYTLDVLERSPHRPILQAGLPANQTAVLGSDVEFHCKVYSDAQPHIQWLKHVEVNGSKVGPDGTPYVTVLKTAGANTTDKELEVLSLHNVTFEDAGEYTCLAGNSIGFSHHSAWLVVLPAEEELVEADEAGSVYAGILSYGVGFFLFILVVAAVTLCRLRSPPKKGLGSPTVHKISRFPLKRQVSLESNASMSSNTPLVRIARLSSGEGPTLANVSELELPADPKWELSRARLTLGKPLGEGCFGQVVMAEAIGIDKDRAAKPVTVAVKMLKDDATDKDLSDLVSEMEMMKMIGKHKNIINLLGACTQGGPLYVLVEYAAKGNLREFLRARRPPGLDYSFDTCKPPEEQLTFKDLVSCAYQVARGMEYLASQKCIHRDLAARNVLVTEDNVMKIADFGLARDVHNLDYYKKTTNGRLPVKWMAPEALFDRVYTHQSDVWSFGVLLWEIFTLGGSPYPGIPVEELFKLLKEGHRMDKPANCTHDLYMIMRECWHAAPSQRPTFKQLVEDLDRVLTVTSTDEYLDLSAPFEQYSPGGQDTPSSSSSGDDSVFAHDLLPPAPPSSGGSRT

Jak2 = Jak2 (UniProt O60674); assay: as above
Sequence of Jak2 (O60674 whole entry, looked up): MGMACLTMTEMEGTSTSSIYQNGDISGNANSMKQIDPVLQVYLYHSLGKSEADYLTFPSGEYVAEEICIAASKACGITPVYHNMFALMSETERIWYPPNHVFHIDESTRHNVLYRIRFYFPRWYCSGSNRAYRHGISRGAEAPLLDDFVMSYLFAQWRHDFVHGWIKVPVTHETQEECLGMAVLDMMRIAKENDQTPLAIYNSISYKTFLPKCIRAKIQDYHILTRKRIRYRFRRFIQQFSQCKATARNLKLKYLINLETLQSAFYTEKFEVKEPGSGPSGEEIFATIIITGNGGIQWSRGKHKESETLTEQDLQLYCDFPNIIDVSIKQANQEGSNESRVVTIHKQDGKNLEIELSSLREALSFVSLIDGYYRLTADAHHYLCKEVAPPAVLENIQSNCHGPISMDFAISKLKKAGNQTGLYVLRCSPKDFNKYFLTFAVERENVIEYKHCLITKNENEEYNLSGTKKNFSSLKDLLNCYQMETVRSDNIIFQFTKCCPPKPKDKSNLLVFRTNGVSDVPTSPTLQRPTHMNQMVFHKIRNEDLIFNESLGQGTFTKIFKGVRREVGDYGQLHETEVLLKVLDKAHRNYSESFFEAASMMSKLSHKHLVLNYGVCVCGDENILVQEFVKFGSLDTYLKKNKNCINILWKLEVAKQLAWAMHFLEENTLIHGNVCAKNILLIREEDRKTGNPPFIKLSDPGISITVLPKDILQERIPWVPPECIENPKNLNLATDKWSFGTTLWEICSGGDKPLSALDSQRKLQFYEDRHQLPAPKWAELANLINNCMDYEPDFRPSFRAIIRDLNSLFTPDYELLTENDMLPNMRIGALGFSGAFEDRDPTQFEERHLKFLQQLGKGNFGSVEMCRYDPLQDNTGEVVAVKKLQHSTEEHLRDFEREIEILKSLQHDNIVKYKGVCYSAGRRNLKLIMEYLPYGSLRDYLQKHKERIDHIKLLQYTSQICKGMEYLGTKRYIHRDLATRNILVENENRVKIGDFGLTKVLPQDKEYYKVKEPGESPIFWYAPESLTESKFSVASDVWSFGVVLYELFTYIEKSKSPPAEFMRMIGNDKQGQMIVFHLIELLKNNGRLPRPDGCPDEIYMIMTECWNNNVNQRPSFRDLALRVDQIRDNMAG

FGFR1 = FGFR1 (UniProt P11362); assay: as above
Sequence of FGFR1 (P11362 whole entry, looked up): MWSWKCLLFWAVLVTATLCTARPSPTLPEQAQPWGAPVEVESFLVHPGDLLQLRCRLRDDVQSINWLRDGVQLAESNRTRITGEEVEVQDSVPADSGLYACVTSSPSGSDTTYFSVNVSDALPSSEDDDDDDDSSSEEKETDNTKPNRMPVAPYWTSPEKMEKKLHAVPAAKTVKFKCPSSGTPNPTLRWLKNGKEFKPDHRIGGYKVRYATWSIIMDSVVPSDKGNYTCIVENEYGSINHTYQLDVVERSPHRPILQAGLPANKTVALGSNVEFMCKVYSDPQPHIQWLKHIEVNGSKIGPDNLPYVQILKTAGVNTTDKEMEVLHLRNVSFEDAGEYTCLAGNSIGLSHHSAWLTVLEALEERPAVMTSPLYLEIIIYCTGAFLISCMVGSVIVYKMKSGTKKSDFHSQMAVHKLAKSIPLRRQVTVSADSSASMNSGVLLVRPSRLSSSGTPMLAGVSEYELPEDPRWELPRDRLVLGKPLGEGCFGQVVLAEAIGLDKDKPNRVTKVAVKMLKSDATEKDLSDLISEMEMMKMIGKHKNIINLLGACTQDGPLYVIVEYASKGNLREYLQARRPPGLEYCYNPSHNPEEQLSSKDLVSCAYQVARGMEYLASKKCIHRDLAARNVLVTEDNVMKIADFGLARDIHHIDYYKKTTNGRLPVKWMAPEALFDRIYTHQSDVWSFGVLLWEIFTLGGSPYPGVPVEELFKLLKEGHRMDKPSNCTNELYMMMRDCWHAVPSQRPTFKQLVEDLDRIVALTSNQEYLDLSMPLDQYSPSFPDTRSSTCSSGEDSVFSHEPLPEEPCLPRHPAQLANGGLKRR

c-Src SH2 = assay: SH2 binding enrichment of the phosphorylated peptide, bacterial display (enrichment ratio); higher = better substrate or ligand; peptides without Tyr show the background
Grb2 SH2 = Grb2 SH2 (UniProt P62993); assay: as above
Sequence of Grb2 SH2 (P62993 whole entry, looked up): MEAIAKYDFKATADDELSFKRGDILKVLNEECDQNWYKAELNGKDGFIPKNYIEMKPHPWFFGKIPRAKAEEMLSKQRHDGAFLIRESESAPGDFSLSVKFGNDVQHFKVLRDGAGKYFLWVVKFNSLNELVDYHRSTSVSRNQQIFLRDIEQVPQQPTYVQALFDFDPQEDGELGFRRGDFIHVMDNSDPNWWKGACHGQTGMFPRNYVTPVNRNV

SHP2-C SH2 = assay: as above
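Wherever SH2 binding enrichment of the phosphorylated peptide, bacterial display is given: peptide library displayed on the E. coli surface as eCPX fusions, selected cells deep-sequenced, score is each peptide's frequency after selection divided by its frequency in the input.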
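Wherever phosphorylation enrichment, bacterial display is given: 11-residue human phosphosite peptides and single-mutation variants displayed on the E. coli surface, counted by deep sequencing, each peptide's frequency after selection divided by its frequency in the unselected input library; frequency after pTyr selection over input frequency; kinase dosed for 20-30% of maximal phosphorylation in three min.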

Sequence of Hck (P08631 whole entry, looked up): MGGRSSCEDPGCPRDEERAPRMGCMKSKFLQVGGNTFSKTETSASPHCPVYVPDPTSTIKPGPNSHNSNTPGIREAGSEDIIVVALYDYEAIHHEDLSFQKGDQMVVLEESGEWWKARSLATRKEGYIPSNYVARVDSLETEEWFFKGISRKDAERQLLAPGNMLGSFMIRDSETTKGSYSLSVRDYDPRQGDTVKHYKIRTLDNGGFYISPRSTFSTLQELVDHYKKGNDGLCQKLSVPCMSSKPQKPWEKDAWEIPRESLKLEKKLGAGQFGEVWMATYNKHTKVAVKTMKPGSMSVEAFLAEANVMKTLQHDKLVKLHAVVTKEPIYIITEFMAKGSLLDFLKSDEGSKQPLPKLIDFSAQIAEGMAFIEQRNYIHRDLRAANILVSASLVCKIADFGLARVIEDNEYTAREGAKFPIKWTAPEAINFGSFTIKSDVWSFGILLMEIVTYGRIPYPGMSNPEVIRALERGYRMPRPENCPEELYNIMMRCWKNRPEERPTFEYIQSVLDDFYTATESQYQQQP

| Sequence | phosphorylation enrichment (EPHB2) | phosphorylation enrichment (AncSZ) | phosphorylation enrichment (Fer (mouse)) | phosphorylation enrichment (Hck) | phosphorylation enrichment (Fes) | phosphorylation enrichment (c-Src) | phosphorylation enrichment (EPHB1) | phosphorylation enrichment (c-Abl (mouse)) | phosphorylation enrichment (Fyn) | phosphorylation enrichment (MERTK) | phosphorylation enrichment (FGFR3) | phosphorylation enrichment (Jak2) | phosphorylation enrichment (FGFR1) | SH2 binding enrichment (c-Src SH2) | SH2 binding enrichment (Grb2 SH2) | SH2 binding enrichment (SHP2-C SH2) |
| --- | --- | --- | --- | --- | --- | --- | --- | --- | --- | --- | --- | --- | --- | --- | --- | --- |
| IVEYAYNDKAV [PUM3_Y259_I264V] | 0.418 | 0.989 | 0.455 | 0.42 | 1.1 | 0.492 | 0.669 | 1.01 | 0.418 | 0.5 | 0.673 | 1 | 0.52 | 0.719 | 0.927 | 0.881 |
| IYRASYVPFAA [RBM47_Y541_G538R] | 0.571 | 1.04 | 0.521 | 0.657 | 0.897 | 0.681 | 0.81 | 7.02 | 0.593 | 0.66 | 0.645 | 0.82 | 0.562 | 0.611 | 0.866 | 0.742 |
| KAIMTYVPSFF [ACTN4_Y260_S262P_YF] | 0.531 | 0.72 | 0.438 | 0.497 | 0.838 | 0.46 | 0.61 | 0.647 | 0.499 | 0.487 | 0.542 | 0.678 | 0.445 | 0.97 | 0.97 | 0.836 |
| KANEYYPVVII [ADAMTS18_Y765_L769I] | 2.08 | 2.63 | 1.45 | 0.738 | 0.978 | 0.704 | 1.65 | 2.4 | 0.613 | 0.81 | 10.8 | 3.18 | 12.8 | 0.383 | 0.721 | 0.458 |
| KDGSGYISAAE [CALM1_Y100_N98S] | 0.409 | 0.648 | 0.369 | 0.444 | 0.82 | 0.4 | 0.388 | 0.544 | 0.476 | 0.464 | 0.496 | 0.6 | 0.456 | 0.465 | 0.715 | 0.816 |
| KDHPDYKFQPR [SOX10_Y171_YF] | 0.501 | 0.694 | 0.44 | 0.48 | 0.745 | 0.453 | 0.466 | 0.573 | 0.487 | 0.468 | 0.543 | 0.566 | 0.519 | 0.498 | 0.946 | 0.71 |
| KDKLPYLYDDP [GPX2_Y125_P126L] | 0.765 | 1.17 | 0.77 | 0.537 | 0.983 | 0.455 | 0.947 | 0.547 | 0.522 | 0.461 | 0.624 | 0.857 | 0.5 | 1.04 | 0.871 | 0.682 |
| KDKLPYPFDDP [GPX2_Y125_YF] | 0.792 | 1.04 | 0.533 | 0.498 | 1.01 | 0.486 | 0.457 | 0.581 | 0.556 | 0.512 | 0.638 | 0.821 | 0.567 | 0.454 | 0.815 | 0.854 |
| KDQGGYTMHQD [MAPT_Y29] | 0.456 | 0.754 | 0.399 | 0.484 | 0.793 | 0.385 | 0.4 | 0.569 | 0.404 | 0.413 | 0.465 | 0.542 | 0.512 | 0.451 | 0.722 | 0.349 |
| KEEEDYREENN [BMS1_Y651_K652R] | 0.528 | 1.3 | 0.585 | 0.65 | 1.24 | 0.536 | 0.63 | 0.877 | 0.5 | 0.601 | 0.79 | 1.15 | 0.582 | 0.458 | 0.754 | 0.822 |
| KFADVYVGICL [B3GALNT1_Y269_E266A] | 0.988 | 1.46 | 0.978 | 0.85 | 1.34 | 1.12 | 0.846 | 1.29 | 0.787 | 0.522 | 0.909 | 1.21 | 0.65 | 0.423 | 0.731 | 0.369 |
| KGNMYYENSYA [EGFR_Y113_R108K] | 0.593 | 0.667 | 1.23 | 0.561 | 0.77 | 0.473 | 0.629 | 0.474 | 0.515 | 1.17 | 0.72 | 0.481 | 0.878 | 4.96 | 10.2 | 1.05 |
| KGPNVCKKTVN [REV3L_Y1156_Y1156C] | 0.525 | 0.644 | 0.376 | 0.516 | 0.863 | 0.54 | 0.457 | 1.13 | 0.378 | 0.415 | 0.741 | 0.944 | 0.529 | 1.19 | 1.38 | 1.48 |
| KGPNVYKKTVN [REV3L_Y1156] | 0.31 | 0.456 | 0.429 | 0.414 | 0.581 | 0.546 | 0.307 | 0.492 | 0.313 | 0.362 | 0.391 | 0.5 | 0.448 | 0.529 | 0.633 | 0.606 |
| KGSEGYLAAIY [NF1_Y2503_T2507I] | 0.561 | 0.78 | 0.493 | 1.09 | 0.912 | 0.898 | 0.525 | 0.563 | 0.8 | 0.485 | 0.552 | 0.673 | 0.572 | 0.54 | 0.911 | 0.606 |
| KGSLPYNLILD [PKD1L2_Y406] | 0.418 | 0.695 | 0.488 | 0.44 | 0.713 | 0.542 | 0.468 | 0.743 | 0.438 | 0.421 | 0.616 | 0.687 | 0.552 | 3.69 | 0.75 | 0.71 |
| KGVDRYNPENL [EIF3K_Y21_I18V] | 0.648 | 0.502 | 0.311 | 0.437 | 0.466 | 0.397 | 0.35 | 0.392 | 0.415 | 0.402 | 0.372 | 0.428 | 0.308 | 0.465 | 0.643 | 0.592 |

| Sequence | phosphorylation enrichment (EPHB2) | phosphorylation enrichment (AncSZ) | phosphorylation enrichment (Fer (mouse)) | phosphorylation enrichment (Hck) | phosphorylation enrichment (Fes) | phosphorylation enrichment (c-Src) | phosphorylation enrichment (EPHB1) | phosphorylation enrichment (c-Abl (mouse)) | phosphorylation enrichment (Fyn) | phosphorylation enrichment (MERTK) | phosphorylation enrichment (FGFR3) | phosphorylation enrichment (Jak2) | phosphorylation enrichment (FGFR1) | SH2 binding enrichment (c-Src SH2) | SH2 binding enrichment (Grb2 SH2) | SH2 binding enrichment (SHP2-C SH2) |
| --- | --- | --- | --- | --- | --- | --- | --- | --- | --- | --- | --- | --- | --- | --- | --- | --- |
| KICDWYQRQRP [KRT14_Y151_R148C] | 0.602 | 1 | 0.513 | 0.407 | 0.9 | 0.48 | 0.398 | 0.555 | 0.447 | 0.511 | 0.598 | 0.651 | 0.466 | 0.616 | 0.854 | 0.75 |
| KILGRYYETGS [PAX2_Y72] | 0.586 | 0.641 | 0.418 | 0.486 | 0.758 | 0.504 | 0.5 | 0.636 | 0.437 | 0.548 | 0.523 | 0.952 | 0.507 | 1.21 | 0.951 | 0.6 |
| KILTHYKRPHT [KMT2D_Y5349] | 0.42 | 0.495 | 0.445 | 0.349 | 0.621 | 0.379 | 0.359 | 0.579 | 0.393 | 0.365 | 0.515 | 0.439 | 0.456 | 1.56 | 1.76 | 1.27 |
| KIPGRYFETGS [PAX2_Y72_L69P_YF] | 0.546 | 0.604 | 0.427 | 0.396 | 1.31 | 0.521 | 0.382 | 0.633 | 0.466 | 0.464 | 0.531 | 0.783 | 0.471 | 0.606 | 1.37 | 0.726 |
| KIVATYRLCSE [DNAH3_Y1586] | 0.626 | 1.06 | 0.487 | 0.725 | 1.28 | 0.535 | 0.631 | 0.714 | 0.463 | 0.565 | 0.664 | 1.02 | 0.571 | 0.512 | 0.685 | 0.778 |
| KKLAEYGPQGR [CLCA1_Y147] | 0.366 | 0.428 | 0.316 | 0.36 | 0.519 | 0.358 | 0.376 | 0.473 | 0.408 | 0.379 | 0.361 | 0.441 | 0.364 | 0.546 | 0.901 | 0.631 |
| KKLEVYQSIAD [MYBPC3_Y548] | 0.529 | 0.878 | 0.502 | 1.08 | 0.882 | 0.798 | 0.557 | 0.55 | 0.725 | 0.488 | 0.75 | 0.857 | 0.499 | 1.47 | 0.792 | 1.18 |
| KKMKCYHVGKV [HARS2_Y151_R150C] | 0.431 | 0.579 | 0.356 | 0.383 | 0.723 | 0.408 | 0.444 | 0.627 | 0.317 | 0.423 | 0.552 | 0.588 | 0.395 | 1.12 | 1.35 | 0.954 |
| KKYPDYIQIAM [SGMS2_Y59] | 1.69 | 1.45 | 0.52 | 0.581 | 0.949 | 0.483 | 10 | 0.729 | 0.448 | 0.435 | 5.93 | 1.46 | 9.52 | 0.644 | 1.04 | 0.787 |
| KLLPEYPGVLS [DHFR2_Y163] | 0.399 | 0.685 | 0.493 | 0.491 | 0.657 | 0.458 | 0.349 | 0.497 | 0.46 | 0.385 | 0.564 | 0.598 | 0.379 | 0.574 | 0.952 | 0.809 |
| KLVQLYDVCTK [BTK_Y461_G462D] | 11.7 | 0.994 | 2.56 | 4.92 | 1.03 | 1.56 | 12.1 | 1.25 | 1.37 | 7.27 | 0.742 | 0.79 | 0.58 | 0.881 | 0.984 | 0.865 |
| KNDSNYVVKGN [KIT_Y823] | 0.318 | 0.539 | 0.323 | 0.406 | 0.635 | 0.346 | 0.303 | 0.568 | 0.37 | 0.382 | 0.447 | 0.482 | 0.55 | 0.546 | 0.814 | 0.659 |
| KNKNRCKNILP [PTPN11_Y279_Y279C] | 0.503 | 0.765 | 0.488 | 0.481 | 0.942 | 0.565 | 0.448 | 1.37 | 0.374 | 0.581 | 0.959 | 1.48 | 0.617 | 0.892 | 0.861 | 0.598 |
| KNNDGYTDFAE [MCFD2_Y135_I136T_YF] | 0.594 | 0.999 | 0.529 | 0.529 | 1.07 | 0.449 | 0.578 | 0.731 | 0.522 | 0.42 | 0.732 | 0.882 | 0.559 | 5.75 | 0.869 | 0.8 |
| KNNSIYVLANI [VNN1_Y134_V136L] | 0.668 | 1.17 | 2.7 | 1.15 | 1.24 | 1.58 | 0.793 | 1.05 | 1.14 | 1.95 | 1.08 | 1.16 | 0.947 | 0.796 | 1.14 | 1.67 |
| KNRDVSSSDFF [USP24_Y2134_Y2134S_YF] | 0.393 | 0.701 | 0.427 | 0.425 | 0.71 | 0.399 | 0.444 | 0.583 | 0.432 | 0.436 | 0.539 | 0.641 | 0.365 | 0.424 | 0.882 | 0.635 |
